Literature values as cited in publication PMC9805914.

Target: SARS-CoV-2 spike RGD motif RGD motif (Severe acute respiratory syndrome coronavirus 2) (UniProt P0DTC2)

Substance: integrin αvβ8 (from UniProt P06756)
- Kd: 4 nM
